From paper PMC6134094 (mBio, 2018)

Target: T1, cleaved Ebola virus (EBOV) glycoprotein GPCL (Ebola virus (Zaire ebolavirus), UniProt Q05320)
T1 construct: copies: 3 + 3
Experiment: crystal structure
Settings: both partners purified

B1: ADI-15878 fragment antigen binding (Fab) (Fab, V domains shown)
VH: QVQLVQSGVTLVQPGGSLRVSCAASGFTFSSYAMSWVRQAPGKGLEWVSAISGLGGSTYYADSVKGRFTISRDNSKNTLYLQMNSLRAEDTAVYYCAKDHRVWAAGYHFDYWGQGALVTVSS
VL: DIVLTQSPSTLSASVGDRVTITCRASQSISSWLAWYQQKPGEAPKLLISDASSLESGVPSRFSGSGSGTEFTLTISSLQPDDFATYYCQQYYSSPTFGGGTKVEIK
notes: also called ADI-15878 Fab
binding result: binds
